# Data as given in the supplement of paper PMC10567573.
# B1: KCNA3 (parent)
# chain: YQSGGRIRRPVNVPIDIFSEEIRF
# Variants of: B1
# Assay: protein stability index of a GFP-peptide fusion (GPS, HEK-293T) (PSI 1-6); higher = more stable
# Settings: c terminus: a fixed tail appended
# 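Further: lentivirally expressed fusions sorted by FACS into six bins by GFP to DsRed ratio, PSI derived from sequencing read proportions per bin multiplied by bin number.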
row,Variant,protein stability index
1,YQSGGRIRRPVNVPYDIFSEEIRF,1.63
2,YQSGGRIRRPVNVPHDIFSEEIRF,2.16
3,YQSGGRIRRPVNVPWDIFSEEIRF,1.92
4,YQSGGRIRRPVNVPLDIFSEEIRF,1.83
5,YQSGGRIRRPVNVPNDIFSEEIRF,2.36
6,YQSGGRIRRPVNVPEDIFSEEIRF,2.11
7,YQSGGRIRRPVNVPQDIFSEEIRF,2.56
8,YQSGGRIRRPVNVPRDIFSEEIRF,2.41
9,YQSGGRIRRPVNVPFDIFSEEIRF,1.48
10,YQSGGRIRRPVNVPTDIFSEEIRF,2.37
11,YQSGGRIRRPVNVPGDIFSEEIRF,2.4
12,YQSGGRIRRPVNVPCDIFSEEIRF,2.13
13,YQSGGRIRRPVNVPPDIFSEEIRF,2.03
14,YQSGGRIRRPVNVPADIFSEEIRF,3.48
15,YQSGGRIRRPVNVPDDIFSEEIRF,2.33
16,YQSGGRIRRPVNVPKDIFSEEIRF,2.19
17,YQSGGRIRRPVNVPMDIFSEEIRF,2.13
18,YQSGGRIRRPVNVPSDIFSEEIRF,2.69
19,YQSGGRIRRPVNVPILIFSEEIRF,1.88
20,YQSGGRIRRPVNVPIIIFSEEIRF,2.51
21,YQSGGRIRRPVNVPIPIFSEEIRF,2.34
22,YQSGGRIRRPVNVPIFIFSEEIRF,1.33
23,YQSGGRIRRPVNVPIVIFSEEIRF,1.19
24,YQSGGRIRRPVNVPIWIFSEEIRF,1.87

row,Variant,protein stability index
1,YQSGGRIRRPVNVPIAIFSEEIRF,3.22
2,YQSGGRIRRPVNVPIQIFSEEIRF,2.61
3,YQSGGRIRRPVNVPIRIFSEEIRF,1.64
4,YQSGGRIRRPVNVPIGIFSEEIRF,1.73
5,YQSGGRIRRPVNVPINIFSEEIRF,2.01
6,YQSGGRIRRPVNVPISIFSEEIRF,2.42
7,YQSGGRIRRPVNVPIYIFSEEIRF,1.39
8,YQSGGRIRRPVNVPIMIFSEEIRF,1.73
9,YQSGGRIRRPVNVPIHIFSEEIRF,1.84
10,YQSGGRIRRPVNVPICIFSEEIRF,1.41
11,YQSGGRIRRPVNVPIKIFSEEIRF,1.8
12,YQSGGRIRRPVNVPITIFSEEIRF,2.51
13,YQSGGRIRRPVIVPIDIFSEEIRF,1.93
14,YQSGGRIRRPVMVPIDIFSEEIRF,2.26
15,YQSGGRIRRPVCVPIDIFSEEIRF,2.62
16,YQSGGRIRRPVWVPIDIFSEEIRF,2.21
17,YQSGGRIRRPVQVPIDIFSEEIRF,2.34
18,YQSGGRIRRPVHVPIDIFSEEIRF,3.14
19,YQSGGRIRRPVAVPIDIFSEEIRF,1.8
20,YQSGGRIRRPVPVPIDIFSEEIRF,2.11
21,YQSGGRIRRPVSVPIDIFSEEIRF,2.63
22,YQSGGRIRRPVFVPIDIFSEEIRF,1.35
23,YQSGGRIRRPVLVPIDIFSEEIRF,1.4
24,YQSGGRIRRPVKVPIDIFSEEIRF,1.91

row,Variant,protein stability index
1,YQSGGRIRRPVDVPIDIFSEEIRF,1.8
2,YQSGGRIRRPVTVPIDIFSEEIRF,2.17
3,YQSGGRIRRPVRVPIDIFSEEIRF,1.28
4,YQSGGRIRRPVVVPIDIFSEEIRF,1.41
5,YQSGGRIRRPVGVPIDIFSEEIRF,1.83
6,YQSGGRIRRPVEVPIDIFSEEIRF,1.8
7,YQSGGRIRRPVYVPIDIFSEEIRF,1.08
8,YQSGGRIRRSVNVPIDIFSEEIRF,2.43
9,YQSGGRIRRDVNVPIDIFSEEIRF,1.87
10,YQSGGRIRRAVNVPIDIFSEEIRF,2.31
11,YQSGGRIRRGVNVPIDIFSEEIRF,2.48
12,YQSGGRIRRNVNVPIDIFSEEIRF,1.64
13,YQSGGRIRRFVNVPIDIFSEEIRF,1.39
14,YQSGGRIRRCVNVPIDIFSEEIRF,2.03
15,YQSGGRIRRLVNVPIDIFSEEIRF,1.6
16,YQSGGRIRRRVNVPIDIFSEEIRF,1.64
17,YQSGGRIRRKVNVPIDIFSEEIRF,1.33
18,YQSGGRIRRVVNVPIDIFSEEIRF,1.91
19,YQSGGRIRRYVNVPIDIFSEEIRF,1.76
20,YQSGGRIRRTVNVPIDIFSEEIRF,2.83
21,YQSGGRIRRMVNVPIDIFSEEIRF,1.62
22,YQSGGRIRREVNVPIDIFSEEIRF,2.02
23,YQSGGRIRRQVNVPIDIFSEEIRF,1.53
24,YQSGGRIRRWVNVPIDIFSEEIRF,2.7

row,Variant,protein stability index
1,YQSGGRIRRIVNVPIDIFSEEIRF,1.78
2,YQSGGRIMRPVNVPIDIFSEEIRF,2.03
3,YQSGGRILRPVNVPIDIFSEEIRF,1.26
4,YQSGGRITRPVNVPIDIFSEEIRF,2.07
5,YQSGGRIPRPVNVPIDIFSEEIRF,2.02
6,YQSGGRIKRPVNVPIDIFSEEIRF,2.47
7,YQSGGRIQRPVNVPIDIFSEEIRF,1.67
8,YQSGGRIVRPVNVPIDIFSEEIRF,1.77
9,YQSGGRINRPVNVPIDIFSEEIRF,2.2
10,YQSGGRISRPVNVPIDIFSEEIRF,1.44
11,YQSGGRIYRPVNVPIDIFSEEIRF,3.3
12,YQSGGRIRVPVNVPIDIFSEEIRF,1.41
13,YQSGGRIRDPVNVPIDIFSEEIRF,1.62
14,YQSGGRIRYPVNVPIDIFSEEIRF,1.72
15,YQSGGRIRNPVNVPIDIFSEEIRF,2.12
16,YQSGGRIREPVNVPIDIFSEEIRF,2.26
17,YQSGGRIRCPVNVPIDIFSEEIRF,2.35
18,YQSGGRIRIPVNVPIDIFSEEIRF,2.27
19,YQSGGRIRMPVNVPIDIFSEEIRF,1.61
20,YQSGGRIRQPVNVPIDIFSEEIRF,1.87
21,YQSGGRIRFPVNVPIDIFSEEIRF,1.81
22,YQSGGRIRLPVNVPIDIFSEEIRF,2.05
